Results on 14 variants are retold here after publication PMC4498904, “Mutagenesis Study Reveals the Rim of Catalytic Entry Site of HDAC4 and -5 as the Major Binding Surface of SMRT Corepressor” (PLoS ONE, 2015).

B1: KGC-HDAC4c (C-terminal portion of Kusabira Green protein fused with HDAC4c), wild type [human] / KGN-SRD3c (N-terminal portion of Kusabira Green protein fused with SRD3c) [human] (parent complex)
chain 1: PRFTTGLVYDTLMLKHQCTCGSSSSHPEHAGRIQSIWSRLQETGLRGKCECIRGRKATLEELQTVHSEAHTLLYGTNPLNRQKLDSKKLLGSLASVFVRLPCGGVGVDSDTIWNEVHSAGAARLAVGCVVELVFKVATGELKNGFAVVRPPGHHAEESTPMGFCYFNSVAVAAKLLQQRLSVSKILIVDWDVHHGNGTQQAFYSDPSVLYMSLHRYDDGNFFPGSGAPDEVGTGPGVGFNVNMAFTGGLDPPMGDAEYLAAFRTVVMPIASEFAPDVVLVSSGFDAVEGHPTPLGGYNLSARCFGYLTKQLMGLAGGRIVLALEGGHDLTAICDASEACVSALLGNELDPLPEKVLQQRPNANAVRSMEKVMEIHSKYWRCLQRTTSTAGRSLIEAQTCENEEAET
chain 2: EGGMSVTQCSKEDGRSSSGPPHETAAPKRTYDMMEGRVGRAISSASIEGLMGRAIPPERHSPHHLKEQHHIRGSITQGIPRSYVEAQEDYLRREAKLLKREGTPPPPPPSRDLTEAYKTQALGPLKLKPAHEGLVATVKEAGRSIHEIPREELRHTPELPLAPRPLKEGSITQGTPLKYDTGASTTGSKKHDVRSLIGSPGRTFPPVHPLDVMADARALERACY

The assay covers variants of B1. As to the kind of experiment: BiFC assay (fluorescence spectrophotometer); HEK293 cells; KGN-SRD3c (1 μg) and KGC-HDAC4c mutant (1 μg); 48 hours of transfection; whole cell lysates; parent: 8; read off a plot.
As to chain 1 PRFTTGLVYDTLMLKHQCTCGSSSSHPEHAGRIQSIWSRLQETGLRGKCECIRGRKATLEELQTVHSEAHTLLYGTNPLNRQKLDSKKLLGSLASVFVRLPCGGVGVDSDTIWNEVHSAGAARLAVGCVVELVFKVATGELKNGFAVVRPHGHHAEESTPMGFCYFNSVAVAAKLLQQRLSVSKILIVDWDVHHGNGTQQAFYSDPSVLYMSLHRYDDGNFFPGSGAPDEVGTGPGVGFNVNMAFTGGLDPPMGDAEYLAAFRTVVMPIASEFAPDVVLVSSGFDAVEGHPTPLGGYNLSARCFGYLTKQLMGLAGGRIVLALEGGHDLTAICDASEACVSALLGNELDPLPEKVLQQRPNANAVRSMEKVMEIHSKYWRCLQRTTSTAGRSLIEAQTCENEEAET [chain 1 P151H], the response is around 4.1 RFU.

Consider chain 1 PRFTTGLVYDTLMLKHQCTCGSSSSHPEHAGRIQSIWSRLQETGLRGKCECIRGRKATLEELQTVHSEAHTLLYGTNPLNRQKLDSKKLLGSLASVFVRLPCGGVGVDSDTIWNEVHPAGAARLAVGCVVELVFKVATGELKNGFAVVRPPGHHAEESTPMGFCYFNSVAVAAKLLQQRLSVSKILIVDWDVHHGNGTQQAFYSDPSVLYMSLHRYDDGNFFPGSGAPDEVGTGPGVGFNVNMAFTGGLDPPMGDAEYLAAFRTVVMPIASEFAPDVVLVSSGFDAVEGHPTPLGGYNLSARCFGYLTKQLMGLAGGRIVLALEGGHDLTAICDASEACVSALLGNELDPLPEKVLQQRPNANAVRSMEKVMEIHSKYWRCLQRTTSTAGRSLIEAQTCENEEAET [chain 1 S118P], for which the response was around 4.4 RFU.

For the variant chain 1 PRFTTGLVYDTLMLKHQCTCGSSSSHPEHAGRIQSIWSRLQETGLRGKCECIRGRKATLEELQTVHSEAHTLLYGTNPLNRQKLDSKKLLGSLASVFVRLPCGGVGVDSDTIWNEVHSAGAARLAVGCVVELVFKVATGELKNGFAVVRPPGHHAEESTPMGFCYFNSVAVAAKLLQQRLSVSKILIVDWDVHHGNGTQQAFYSDPSVLYMSLHRYDDANFFPGSGAPDEVGTGPGVGFNVNMAFTGGLDPPMGDAEYLAAFRTVVMPIASEFAPDVVLVSSGFDAVEGHPTPLGGYNLSARCFGYLTKQLMGLAGGRIVLALEGGHDLTAICDASEACVSALLGNELDPLPEKVLQQRPNANAVRSMEKVMEIHSKYWRCLQRTTSTAGRSLIEAQTCENEEAET [chain 1 G219A], the response was around 5.3 RFU.

Turning to chain 1 PRFTTGLVYDTLMLKHQCTCGSSSSHPEHAGRIQSIWSRLQETGLRGKCECIRGRKATLEELQTVHSEAHTLLYGTNPLNRQKLDSKKLLGSLASVFVRLPCGGVGVDSDTIWNEVHSAGAARLAVGCVVELVFKVATGELKNGFAVVRPPEHHAEESTPMGFCYFNSVAVAAKLLQQRLSVSKILIVDWDVHHGNGTQQAFYSDPSVLYMSLHRYDDGNFFPGSGAPDEVGTGPGVGFNVNMAFTGGLDPPMGDAEYLAAFRTVVMPIASEFAPDVVLVSSGFDAVEGHPTPLGGYNLSARCFGYLTKQLMGLAGGRIVLALEGGHDLTAICDASEACVSALLGNELDPLPEKVLQQRPNANAVRSMEKVMEIHSKYWRCLQRTTSTAGRSLIEAQTCENEEAET [chain 1 G152E], the response is around 3.9 RFU.

On to chain 1 PRFTTGLVYDTLMLKHQCTCGSSSSHPEHAGRIQSIWSRLQETGLRGKCECIRGRKATLEELQTVHSEAHTLLYGTNPLNRQKLDSKKLLGSLASVFVRLPCGGVGVDSYTIWNEVHSAGAARLAVGCVVELVFKVATGELKNGFAVVRPPGHHAEESTPMGFCYFNSVAVAAKLLQQRLSVSKILIVDWDVHHGNGTQQAFYSDPSVLYMSLHRYDDGNFFPGSGAPDEVGTGPGVGFNVNMAFTGGLDPPMGDAEYLAAFRTVVMPIASEFAPDVVLVSSGFDAVEGHPTPLGGYNLSARCFGYLTKQLMGLAGGRIVLALEGGHDLTAICDASEACVSALLGNELDPLPEKVLQQRPNANAVRSMEKVMEIHSKYWRCLQRTTSTAGRSLIEAQTCENEEAET [chain 1 D110Y], for which the response is around 5.5 RFU.

With chain 1 PRFTTGLVYDTLMLKHQCTCGSSSSHPEHAGRIQSIWSRLQETGLRGKCECIRGRKATLEELQTVHSEAHTLLYGTNPLNRQKLDSKKLLGSLASVFVRLPCGGVGVDSDTIWNEVHSAGAARLAVGCVVELVFKVATGELKNGFAVVRPPGHHTEESTPMGFCYFNSVAVAAKLLQQRLSVSKILIVDWDVHHGNGTQQAFYSDPSVLYMSLHRYDDGNFFPGSGAPDEVGTGPGVGFNVNMAFTGGLDPPMGDAEYLAAFRTVVMPIASEFAPDVVLVSSGFDAVEGHPTPLGGYNLSARCFGYLTKQLMGLAGGRIVLALEGGHDLTAICDASEACVSALLGNELDPLPEKVLQQRPNANAVRSMEKVMEIHSKYWRCLQRTTSTAGRSLIEAQTCENEEAET [chain 1 A155T], the response is around 4.6 RFU.

For the variant chain 1 PRFTTGLVYDTLMLKHQCTCGSSSSHPEHAGRIQSIWSRLQETGLRGKCECIRGRKATLEELQTVHSEAHTLLYGTNPLNRQKLDSKKLLGSLASVFVRLPCGGVGVDSDTIWNEVHSAGAARLDVGCVVELVFKVATGELKNGFAVVRPPGHHAEESTPMGFCYFNSVAVAAKLLQQRLSVSKILIVDWDVHHGNGTQQAFYSDPSVLYMSLHRYDDGNFFPGSGAPDEVGTGPGVGFNVNMAFTGGLDPPMGDAEYLAAFRTVVMPIASEFAPDVVLVSSGFDAVEGHPTPLGGYNLSARCFGYLTKQLMGLAGGRIVLALEGGHDLTAICDASEACVSALLGNELDPLPEKVLQQRPNANAVRSMEKVMEIHSKYWRCLQRTTSTAGRSLIEAQTCENEEAET [chain 1 A125D], the response is around 4.3 RFU.

Take chain 1 PRFTTGLVYDTLMLKHQCTCGSSSSHPEHAGRIQSIWSRLQETGLRGKCECIRGRKATLEELQTVHSEAHTLLYGTNPLNRQKLDSKKLLGSLASVFVRLPCGGVGVDSDTIWNEVHSAGAARLAVGCVVELVFKVATGELKNGFAVVRHPGHHAEESTPMGFCYFNSVAVAAKLLQQRLSVSKILIVDWDVHHGNGTQQAFYSDPSVLYMSLHRYDDGNFFPGSGAPDEVGTGPGVGFNVNMAFTGGLDPPMGDAEYLAAFRTVVMPIASEFAPDVVLVSSGFDAVEGHPTPLGGYNLSARCFGYLTKQLMGLAGGRIVLALEGGHDLTAICDASEACVSALLGNELDPLPEKVLQQRPNANAVRSMEKVMEIHSKYWRCLQRTTSTAGRSLIEAQTCENEEAET [chain 1 P150H]: the response is around 4.2 RFU.

Turning to chain 1 PRFTTGLVYDTLMLKHQCTCGSSSSHPEHAGRIQSIWSRLQETGLRGKCECIRGRKATLEELQTVHSEAHTLLYGTNPLNRQKLDSKKLLGSLASVFVRLPCGGVGVDSDTIWNEVHSAGAARLAVGCVVELVFKVATGELKNGFAVVRPPGHHAEESTPMGFCYFNSVAVAAKLLQQRLSVSKILIVDWDVHHGNRTQQAFYSDPSVLYMSLHRYDDGNFFPGSGAPDEVGTGPGVGFNVNMAFTGGLDPPMGDAEYLAAFRTVVMPIASEFAPDVVLVSSGFDAVEGHPTPLGGYNLSARCFGYLTKQLMGLAGGRIVLALEGGHDLTAICDASEACVSALLGNELDPLPEKVLQQRPNANAVRSMEKVMEIHSKYWRCLQRTTSTAGRSLIEAQTCENEEAET [chain 1 G197R], the response was around 6.8 RFU.

As to chain 1 PRFTTGLVYDTLMLKHQCTCGSSSSHPEHAGRIQSIWSRLQETGLRGKCECIRGRKATLEELQTVHSEAHTLLYGTNPLNRQKLDSKKLLGSLASVFVRLPCGGVGVDSDTIWNEVHSAGAARLAVGCVVELVFKVATGELKNGFAVVRPPGHHAEESTPMGFYYFNSVAVAAKLLQQRLSVSKILIVDWDVHHGNGTQQAFYSDPSVLYMSLHRYDDGNFFPGSGAPDEVGTGPGVGFNVNMAFTGGLDPPMGDAEYLAAFRTVVMPIASEFAPDVVLVSSGFDAVEGHPTPLGGYNLSARCFGYLTKQLMGLAGGRIVLALEGGHDLTAICDASEACVSALLGNELDPLPEKVLQQRPNANAVRSMEKVMEIHSKYWRCLQRTTSTAGRSLIEAQTCENEEAET [chain 1 C164Y], the response is around 4.1 RFU.

Consider chain 1 PRFTTGLVYDTLMLKHQCTCGSSSSHPEHAGRIQSIWSRLQETGLRGKCECIRGRKATLEELQTVHSEAHTLLYGTNPLNRQKLDSKKLLGSLASVFVRLPCGGVGVDSDTIWNEVHSAGAARLAVGCVVELVFKVATGELKNGFAVVRPPGHHAEESTPMGSCYFNSVAVAAKLLQQRLSVSKILIVDWDVHHGNGTQQAFYSDPSVLYMSLHRYDDGNFFPGSGAPDEVGTGPGVGFNVNMAFTGGLDPPMGDAEYLAAFRTVVMPIASEFAPDVVLVSSGFDAVEGHPTPLGGYNLSARCFGYLTKQLMGLAGGRIVLALEGGHDLTAICDASEACVSALLGNELDPLPEKVLQQRPNANAVRSMEKVMEIHSKYWRCLQRTTSTAGRSLIEAQTCENEEAET [chain 1 F163S], for which the response is around 4.5 RFU.

Take chain 1 PRFTTGLVYDTLMLKHQCTCGSSSSHPEHAGRIQSIWSRLQETGLRGKCECIRGRKATLEELQTVHSEAHTLLYGTNPLNRQKLDSKKLLGSLASVFVRLPCGGVGVDSDPIWNEVHSAGAARLAVGCVVELVFKVATGELKNGFAVVRPPGHHAEESTPMGFCYFNSVAVAAKLLQQRLSVSKILIVDWDVHHGNGTQQAFYSDPSVLYMSLHRYDDGNFFPGSGAPDEVGTGPGVGFNVNMAFTGGLDPPMGDAEYLAAFRTVVMPIASEFAPDVVLVSSGFDAVEGHPTPLGGYNLSARCFGYLTKQLMGLAGGRIVLALEGGHDLTAICDASEACVSALLGNELDPLPEKVLQQRPNANAVRSMEKVMEIHSKYWRCLQRTTSTAGRSLIEAQTCENEEAET [chain 1 T111P]: the response was around 4.2 RFU.

Take chain 1 PRFTTGLVYDTLMLKHQCTCGSSSSHPEHAGRIQSIWSRLQETGLRGKCECIRGRKATLEELQTVHSEAHTLLYGTNPLNRQKLDSKKLLGSLASVFVRLPCGGVGVDSDTIWNEVHSAGAARLAVGCVVELVFKVATGELKNGFAVVRPPGHHAEESTPMGFCYFNSVAVAAKLLQQRLSVSKILIVDWDVHRGNGTQQAFYSDPSVLYMSLHRYDDGNFFPGSGAPDEVGTGPGVGFNVNMAFTGGLDPPMGDAEYLAAFRTVVMPIASEFAPDVVLVSSGFDAVEGHPTPLGGYNLSARCFGYLTKQLMGLAGGRIVLALEGGHDLTAICDASEACVSALLGNELDPLPEKVLQQRPNANAVRSMEKVMEIHSKYWRCLQRTTSTAGRSLIEAQTCENEEAET [chain 1 H194R]: the response was around 3.9 RFU.

Turning to chain 1 PRFTTGLVYDTLMLKHQCTCGSSSSHPEHAGRIQSIWSRLQETGLRGKCECIRGRKATLEELQTVHSEAHTLLYGTNPLNRQKLDSKKLLGSLASVFVRLPCGGVGVDSDTIWNEVHSAGAARLAVGCVVELVFKVATGELKNGFAVVRPPGHHAEESTPMGFCYFNSVAVAAKLLQQRLSVSKILIVDWDVHHGSGTQQAFYSDPSVLYMSLHRYDDGNFFPGSGAPDEVGTGPGVGFNVNMAFTGGLDPPMGDAEYLAAFRTVVMPIASEFAPDVVLVSSGFDAVEGHPTPLGGYNLSARCFGYLTKQLMGLAGGRIVLALEGGHDLTAICDASEACVSALLGNELDPLPEKVLQQRPNANAVRSMEKVMEIHSKYWRCLQRTTSTAGRSLIEAQTCENEEAET [chain 1 N196S], the response was around 4.2 RFU.
